Patent publication US20110104715A1 (published 2011)

Legend:
[1] = biological target: T1, APPΔC31 (N-terminal 664 amino acids of APP695) (human, UniProt P05067 18-664); experiment: co-immunoprecipitation (anti-FLAG M2) from co-transfected 293T cells, western blot with 5A3/1G7
T1 construct: Used both for the deletion construct and for the product of caspase cleavage of APP at Asp664; also called APPdeltaC31; C-terminal truncated APP

[2] = biological target: T2, Wild-type human APP695 (β-amyloid precursor protein) (human, UniProt P05067-4 18-695); experiment: co-immunoprecipitation with anti-FLAG M2 from co-transfected 293T cells, densitometry of the APP band
T2 construct: also called full-length APP

[3] = biological target: T2, Wild-type human APP695 (β-amyloid …); experiment: co-immunoprecipitation with anti-FLAG M2 from co-transfected 293T cells, western blot for APP with 5A3/1G7

| binding result [1] | intensity relative to the other caspases tested [2] | quantitative densitometry intensity of co-immunoprecipitated APP [3] | Binder |
| --- | --- | --- | --- |
| no binding | ~200% | 2.2 | FLAG-tagged catalytic mutant caspase-8 (C360A) (enzyme, UniProt Q14790 1-479, looked up, Printed as 'caspase-S(C360A)', read as caspase-8; FLAG tag present; also called C8; caspase-S(C360A)) MDFSRNLYDIGEQLDSEDLASLKFLSLDYIPQRKQEPIKDALMLFQRLQEKRMLEESNLSFLKELLFRINRLDLLITYLNTRKEEMERELQTPGRAQISAYRVMLYQISEEVSRSELRSFKFLLQEEISKCKLDDDMNLLDIFIEMEKRVILGEGKLDILKRVCAQINKSLLKIINDYEEFSKERSSSLEGSPDEFSNGEELCGVMTISDSPREQDSESQTLDKVYQMKSKPRGYCLIINNHNFAKAREKVPKLHSIRDRNGTHLDAGALTTTFEELHFEIKPHDDCTVEQIYEILKIYQLMDHSNMDCFICCILSHGDKGIIYGTDGQEAPIYELTSQFTGLKCPSLAGKPKVFFIQAAQGDNYQKGIPVETDSEEQPYLEMDLSSPQTRYIPDEADFLLGMATVNNCVSYRNPAEGTWYIQSLCQSLRERCPRGDDILTILTEVNYEVSNKDDKKNMGKQMPQPTFTLRKKLVFPSD |
| – | – | 1 | FLAG-tagged catalytic mutant caspase-7 (C186A) (enzyme, UniProt P55210 1-303, looked up, FLAG tag present; also called C7) MADDQGCIEEQGVEDSANEDSVDAKPDRSSFVPSLFSKKKKNVTMRSIKTTRDRVPTYQYNMNFEKLGKCIIINNKNFDKVTGMGVRNGTDKDAEALFKCFRSLGFDVIVYNDCSCAKMQDLLKKASEEDHTNAACFACILLSHGEENVIYGKDGVTPIKDLTAHFRGDRCKTLLEKPKLFFIQAARGTELDDGIQADSGPINDTDANPRYKIPVEADFLFAYSTVPGYYSWRSPGRGSWFVQALCSILEEHGKDLEIMQILTRVNDRVARHFESQSDDPHFHEKKQIPCVVSMLTKELYFSQ |
| – | – | 1.1 | FLAG-tagged catalytic mutant caspase-9 (C287A) (enzyme, UniProt P55211 1-416, looked up, FLAG tag present; also called C9) MDEADRRLLRRCRLRLVEELQVDQLWDALLSRELFRPHMIEDIQRAGSGSRRDQARQLIIDLETRGSQALPLFISCLEDTGQDMLASFLRTNRQAAKLSKPTLENLTPVVLRPEIRKPEVLRPETPRPVDIGSGGFGDVGALESLRGNADLAYILSMEPCGHCLIINNVNFCRESGLRTRTGSNIDCEKLRRRFSSLHFMVEVKGDLTAKKMVLALLELAQQDHGALDCCVVVILSHGCQASHLQFPGAVYGTDGCPVSVEKIVNIFNGTSCPSLGGKPKLFFIQAAGGEQKDHGFEVASTSPEDESPGSNPEPDATPFQEGLRTFDQLDAISSLPTPSDIFVSYSTFPGFVSWRDPKSGSWYVETLDDIFEQWAHSEDLQSLLLRVANAVSVKGIYKQMPGCFNFLRKKLFFKTS |
| – | – | 1.2 | FLAG-tagged catalytic mutant caspase-6 (C163A) (enzyme, UniProt P55212 1-293, looked up, FLAG tag present; also called C6) MSSASGLRRGHPAGGEENMTETDAFYKREMFDPAEKYKMDHRRRGIALIFNHERFFWHLTLPERRGTCADRDNLTRRFSDLGFEVKCFNDLKAEELLLKIHEVSTVSHADADCFVCVFLSHGEGNHIYAYDAKIEIQTLTGLFKGDKCHSLVGKPKIFIIQAARGNQHDVPVIPLDVVDNQTEKLDTNITEVDAASVYTLPAGADFLMCYSVAEGYYSHRETVNGSWYIQDLCEMLGKYGSSLEFTELLTLVNRKVSQRRVDFCKDPSAIGKKQVPCFASMLTKKLHFFPKSN |
